Measurements published in paper PMC10397247.

What was measured:
P5SC1 = biological target: T1, P5SC1; test: two-hybrid library CC1;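 further: natural log of median RNA to DNA barcode read ratio; higher means stronger binding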
T1 chain: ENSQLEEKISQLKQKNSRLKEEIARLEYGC

P5SC2 = biological target: T2, P5SC2; test: two-hybrid library CC1; settings: mean of both orientations;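 further: natural log of median RNA to DNA barcode read ratio; higher means stronger binding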
T2 chain: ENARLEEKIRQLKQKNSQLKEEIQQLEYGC

P5mS = biological target: T3, P5mS; test: two-hybrid library CC1; settings: mean of both orientations;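 further: natural log of median RNA to DNA barcode read ratio; higher means stronger binding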
T3 chain: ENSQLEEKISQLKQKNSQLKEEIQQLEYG

P6SC1 = biological target: T4, P6SC1; test: two-hybrid library CC1; settings: mean of both orientations;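 further: natural log of median RNA to DNA barcode read ratio; higher means stronger binding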
T4 chain: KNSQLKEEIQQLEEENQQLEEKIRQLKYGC

P6SC2 = biological target: T5, P6SC2; test: two-hybrid library CC1; settings: mean of both orientations
T5 chain: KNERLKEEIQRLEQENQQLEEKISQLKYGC

P6 = biological target: T6, P6; test: two-hybrid library CC1; settings: mean of both orientations
T6 chain: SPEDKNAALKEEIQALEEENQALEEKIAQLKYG

P6mS = biological target: T7, P6mS; test: two-hybrid library CC1; settings: mean of both orientations
T7 chain: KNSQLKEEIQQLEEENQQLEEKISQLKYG

P7 = biological target: T8, P7; test: two-hybrid library CC1; settings: mean of both orientations
T8 chain: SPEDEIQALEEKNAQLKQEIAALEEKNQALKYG

P7mS = biological target: T9, P7mS; test: two-hybrid library CC1; settings: mean of both orientations
T9 chain: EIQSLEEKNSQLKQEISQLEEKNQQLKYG

P8 = biological target: T10, P8; test: two-hybrid library CC1; settings: mean of both orientations
T10 chain: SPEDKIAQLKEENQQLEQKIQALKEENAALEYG

P8mS = biological target: T11, P8mS; test: two-hybrid library CC1; settings: mean of both orientations
T11 chain: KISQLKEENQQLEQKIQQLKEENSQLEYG

P9 = biological target: T12, P9; test: two-hybrid library CC1; settings: mean of both orientations
T12 chain: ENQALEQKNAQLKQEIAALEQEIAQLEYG

O2 = biological target: T13, O2; test: two-hybrid library CC0; settings: mean of both orientations
T13 chain: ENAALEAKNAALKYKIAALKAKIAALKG

O3 = biological target: T14, O3; test: two-hybrid library CC0; settings: mean of both orientations
T14 chain: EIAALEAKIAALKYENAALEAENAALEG

O4 = biological target: T15, O4; test: two-hybrid library CC0; settings: mean of both orientations
T15 chain: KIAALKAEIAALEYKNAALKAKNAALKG

O5 = biological target: T16, O5; test: two-hybrid library CC0; settings: mean of both orientations
T16 chain: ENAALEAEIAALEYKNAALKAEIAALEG

O6 = biological target: T17, O6; test: two-hybrid library CC0; settings: mean of both orientations
T17 chain: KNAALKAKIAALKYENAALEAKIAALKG

O7 = biological target: T18, O7; test: two-hybrid library CC0; settings: mean of both orientations
T18 chain: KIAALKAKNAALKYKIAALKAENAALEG

O8 = biological target: T19, O8; test: two-hybrid library CC0; settings: mean of both orientations
T19 chain: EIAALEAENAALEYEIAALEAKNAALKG

O9 = biological target: T20, O9; test: two-hybrid library CC0; settings: mean of both orientations
T20 chain: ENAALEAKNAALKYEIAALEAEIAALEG

4H235-AA = biological target: T21, 4H235-AA; test: two-hybrid library CCmax
T21 chain: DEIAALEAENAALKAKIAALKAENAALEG

4H249-AA = biological target: T22, 4H249-AA; test: two-hybrid library CCmax; settings: mean of both orientations
T22 chain: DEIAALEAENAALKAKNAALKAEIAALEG

4H2580-AA = biological target: T23, 4H2580-AA; test: two-hybrid library CCmax; settings: mean of both orientations
T23 chain: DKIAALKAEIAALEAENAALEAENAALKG

4H2604-AA = biological target: T24, 4H2604-AA; test: two-hybrid library CCmax; settings: mean of both orientations
T24 chain: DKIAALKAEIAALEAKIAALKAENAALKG

4H2621-AA = biological target: T25, 4H2621-AA; test: two-hybrid library CCmax; settings: mean of both orientations
T25 chain: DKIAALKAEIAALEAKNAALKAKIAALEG

4H2760-AA = biological target: T26, 4H2760-AA; test: two-hybrid library CCmax; settings: mean of both orientations
T26 chain: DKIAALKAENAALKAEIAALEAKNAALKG

4H2774-AA = biological target: T27, 4H2774-AA; test: two-hybrid library CCmax; settings: mean of both orientations
T27 chain: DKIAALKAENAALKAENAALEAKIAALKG

4H2903-AA = biological target: T28, 4H2903-AA; test: two-hybrid library CCmax; settings: mean of both orientations
T28 chain: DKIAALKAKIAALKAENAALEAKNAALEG

4H2947-AA = biological target: T29, 4H2947-AA; test: two-hybrid library CCmax; settings: mean of both orientations
T29 chain: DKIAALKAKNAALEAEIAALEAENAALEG

4H2961-AA = biological target: T30, 4H2961-AA; test: two-hybrid library CCmax; settings: mean of both orientations
T30 chain: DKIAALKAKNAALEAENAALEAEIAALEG

4H3049-AA = biological target: T31, 4H3049-AA; test: two-hybrid library CCmax; settings: mean of both orientations
T31 chain: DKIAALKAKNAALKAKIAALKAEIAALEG

4H3094-AA = biological target: T32, 4H3094-AA; test: two-hybrid library CCmax; settings: mean of both orientations
T32 chain: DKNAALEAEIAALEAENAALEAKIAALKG

4H324-AA = biological target: T33, 4H324-AA; test: two-hybrid library CCmax; settings: mean of both orientations
T33 chain: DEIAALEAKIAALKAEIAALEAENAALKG

4H341-AA = biological target: T34, 4H341-AA; test: two-hybrid library CCmax; settings: mean of both orientations
T34 chain: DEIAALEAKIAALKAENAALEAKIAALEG

4H3449-AA = biological target: T35, 4H3449-AA; test: two-hybrid library CCmax; settings: mean of both orientations
T35 chain: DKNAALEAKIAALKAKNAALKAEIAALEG

4H3619-AA = biological target: T36, 4H3619-AA; test: two-hybrid library CCmax; settings: mean of both orientations
T36 chain: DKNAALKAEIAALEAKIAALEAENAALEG

4H3629-AA = biological target: T37, 4H3629-AA; test: two-hybrid library CCmax; settings: mean of both orientations
T37 chain: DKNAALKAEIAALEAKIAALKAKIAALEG

4H3777-AA = biological target: T38, 4H3777-AA; test: two-hybrid library CCmax; settings: mean of both orientations
T38 chain: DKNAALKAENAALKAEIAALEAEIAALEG

4H380-AA = biological target: T39, 4H380-AA; test: two-hybrid library CCmax; settings: mean of both orientations
T39 chain: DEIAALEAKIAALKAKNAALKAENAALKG

4H3915-AA = biological target: T40, 4H3915-AA; test: two-hybrid library CCmax; settings: mean of both orientations
T40 chain: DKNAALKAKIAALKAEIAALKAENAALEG

4H3974-AA = biological target: T41, 4H3974-AA; test: two-hybrid library CCmax; settings: mean of both orientations
T41 chain: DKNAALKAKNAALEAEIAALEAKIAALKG

4H432-AA = biological target: T42, 4H432-AA; test: two-hybrid library CCmax; settings: mean of both orientations
T42 chain: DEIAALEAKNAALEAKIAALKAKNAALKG

4H446-AA = biological target: T43, 4H446-AA; test: two-hybrid library CCmax; settings: mean of both orientations
T43 chain: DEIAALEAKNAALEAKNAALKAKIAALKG

4H63-AA = biological target: T44, 4H63-AA; test: two-hybrid library CCmax; settings: mean of both orientations
T44 chain: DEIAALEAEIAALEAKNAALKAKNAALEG

P5A = biological target: T45, P5A; test: two-hybrid library CCNG1
T45 chain: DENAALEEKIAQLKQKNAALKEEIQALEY

P6A = biological target: T46, P6A; test: two-hybrid library CCNG1; settings: mean of both orientations
T46 chain: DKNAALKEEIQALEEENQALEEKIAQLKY

P7A = biological target: T47, P7A; test: two-hybrid library CCNG1
T47 chain: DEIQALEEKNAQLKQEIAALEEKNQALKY

P8A = biological target: T48, P8A; test: two-hybrid library CCNG1
T48 chain: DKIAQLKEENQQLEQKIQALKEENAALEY

P9A = biological target: T49, P9A; test: two-hybrid library CCNG1
T49 chain: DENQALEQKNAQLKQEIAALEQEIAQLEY

ENSQLEEKISQLKQKNSRLKEEIARLEYGC [P5SC1]
interaction score (P5SC1): -2.92 | interaction score (P5SC2): -2.82 | interaction score (P5mS): -2.78 | interaction score (P6SC1): 0.372 | interaction score (P6SC2): 0.373 | interaction score (P6): 0.357 | interaction score (P6mS): 0.307 | interaction score (P7): -2.4 | interaction score (P7mS): -2.67 | interaction score (P8): -0.893 | interaction score (P8mS): -2.29 | interaction score (P9): -2.33

ENAALEAKNAALKYKIAALKAKIAALKG [O2]
interaction score (O2): -2.68 | interaction score (O3): -2.68 | interaction score (O4): -2.74 | interaction score (O5): -2.66 | interaction score (O6): -2.73 | interaction score (O7): -2.83 | interaction score (O8): -2.05 | interaction score (O9): -1.04

DEIAALEAENAALKAKIAALKAENAALEG [4H235-AA]
interaction score (4H235-AA): -1.14 | interaction score (4H249-AA): -1.7 | interaction score (4H2580-AA): -0.865 | interaction score (4H2604-AA): -1.14 | interaction score (4H2621-AA): -0.985 | interaction score (4H2760-AA): 2.27 | interaction score (4H2774-AA): 1.48 | interaction score (4H2903-AA): -1.68 | interaction score (4H2947-AA): 0.136 | interaction score (4H2961-AA): -1.27 | interaction score (4H3049-AA): -0.98 | interaction score (4H3094-AA): 0.0844 | interaction score (4H324-AA): -1.12 | interaction score (4H341-AA): -0.261 | interaction score (4H3449-AA): 0.816 | interaction score (4H3619-AA): -1.48 | interaction score (4H3629-AA): -1.09 | interaction score (4H3777-AA): 0.00925 | interaction score (4H380-AA): -1.71 | interaction score (4H3915-AA): -1.49 | interaction score (4H3974-AA): -0.571 | interaction score (4H432-AA): -0.27 | interaction score (4H446-AA): -1.78 | interaction score (4H63-AA): -1.28

DENAALEEKIAQLKQKNAALKEEIQALEY [P5A]
interaction score (P5A): -1.41 | interaction score (P6A): 1.19 | interaction score (P7A): -1.31 | interaction score (P8A): -1.04 | interaction score (P9A): -1.38
